Results taken from IntAct's records for PubMed 22215984.

B1: Transcriptional regulatory protein ComA (Bacillus subtilis), P14204 (parent)
chain: MKKILVIDDHPAVMEGTKTILETDSNLSVDCLSPEPSEQFIKQHDFSSYDLILMDLNLGGEVNGMELSKQILQENPHCKIIVYTGYEVEDYFEEAIRAGLHGAISKTESKEKITQYIYHVLNGEILVDFAYFKQLMTQQKTKPAPSSQKEQDVLTPRECLILQEVEKGFTNQEIADALHLSKRSIEYSLTSIFNKLNVGSRTEAVLIAKSDGVL
partner: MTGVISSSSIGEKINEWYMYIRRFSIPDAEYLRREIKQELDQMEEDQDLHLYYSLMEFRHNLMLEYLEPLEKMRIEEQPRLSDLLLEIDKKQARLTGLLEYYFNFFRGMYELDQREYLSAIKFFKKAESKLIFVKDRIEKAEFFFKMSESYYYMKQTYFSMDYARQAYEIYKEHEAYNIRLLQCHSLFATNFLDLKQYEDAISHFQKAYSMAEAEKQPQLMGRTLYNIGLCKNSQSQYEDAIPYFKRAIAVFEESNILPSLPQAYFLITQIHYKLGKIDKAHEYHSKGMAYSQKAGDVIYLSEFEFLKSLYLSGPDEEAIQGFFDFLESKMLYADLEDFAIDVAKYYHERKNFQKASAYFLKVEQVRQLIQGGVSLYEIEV
B2: Regulatory protein RapF (Bacillus subtilis), P71002 (parent)
chain: B1 partner
partner: B1 chain

Variants of: B1
Conditions: with rapf_bacsu rapF

| Variant | effect of a mutation on the interaction |
| --- | --- |
| T190A | decreasing interaction |
| N194A | decreasing interaction |
| Y187A | decreasing interaction |
| R183A | decreasing interaction |

Variants of: B2
Conditions: with cmpa_bacsu comA

| Variant | effect of a mutation on the interaction |
| --- | --- |
| L67A | disrupting interaction |
| F24A | disrupting interaction |
| Q78A | decreasing interaction |
| P27A | decreasing interaction |
| D28A | disrupting interaction |
